Test system: thrombin generation in platelet-rich plasma of a healthy donor
Assay: Thrombin generation curve (Thrombogram) in platelet-rich plasma, fluorogenic substrate
Assay type: cell-based, Human
Conditions: platelet-rich plasma of a healthy donor treated with the inhibitor vs the same plasma untreated; FIG. 9
Protocol: FIG. 9 is an example of an experiment in which platelet-rich plasma of a healthy donor is measured as well as the same plasma treated with a known platelet-activation inhibitor (ReoPro®). The two curves are different in shape, which is obvious from a longer TTP and lower peak height, but the area under the curve of both curves are within 3%, identical. This effect on peak height and TTP in the absence of a clear effect on the ETP is also seen for many mild coagulation factor deficiencies such as von Willebrand disease, deficiencies in factor VII or factor V and in factor VIII or IX deficiencies (haemophiliae). In many instances the Peak height and TTP have proven to be much more sensitive parameters of the thrombin generation curve than the ETP alone.
Firstly, an experiment is described in which thrombin generation in a sample of platelet rich plasma is measured. Solutions used: Human platelet rich plasma, obtained as in Beguin, S., T. Lindhout, and H. C. Hemker. The effect of trace amounts of tissue factor on thrombin generation in platelet rich plasma, its inhibition by heparin. Thromb Haemost, 1989. 61(1): p-25-9. Buffer A: 20 mM Hepes 140 mM NaCl, 5 g/l bovine serum albumin (BSA), pH 7.35; Buffer C: 20 mM Hepes, 140 mM NaCl, with BSA 60 mg/mL, pH 7.35 with 0.02% sodium azide as a preservative.
FluCa solution: To 1750 μL of buffer C are added 200 μL of 1 M CaCl2. The mixture is warmed to 37° C. Then 50 μL of 100 mmoles/liter of the substrate solution in DMSO is squirted in and the tube is immediately vortexed to obtain a perfectly clear solution that is 2.5 mM in substrate. 100 mM in CaCl2, 2.5% in DMSO. […]
The disturbing effects a and b are corrected by continuous on line comparison of the first derivative of the signal from the thrombin generated in the sample (O=f(t)) and the first derivative of the signal produced in the other sample by the calibrator (S=f(t)). […] A and B are continuously calculated during the experiment from the best fitting straight line through S=f(t). […]

B1: ReoPro: a known platelet-activation inhibitor (antibody, chains of the INN, looked up, V domains shown)
VH: EVQLQQSGTVLARPGASVKMSCEASGYTFTNYWMHWVKQRPGQGLEWIGAIYPGNSDTSYIQKFKGKAKLTAVTSTTSVYMELSSLTNEDSAVYYCTLYDGYYVFAYWGQGTLVTVSA
VL: EIVLTQSPVTLSVTPGDSVSLSCRASRDISNNLHWFQQTSHESPRLLIKYASQSMSGIPSRFSGSGSGTDFTLSINSVETEDFGMYFCQQTNSWPYTFGGGTKLEIK
modifications: Fab
- TTP (time to peak) of thrombin generation curve: longer
- difference in area under the curve (ETP) between treated and untreated plasma: ≤ 3%
- peak height of thrombin generation curve: lower

Reference: patent publication US8802386B2, “Diagnostic test for determining the concentration of transient proteolytic activity in composite biological media” (Synapse B.V., priority 2002, dated 2014)
